Target: T1, mouse ICAM-1 expressed on activated mouse endothelial cells (mouse, UniProt P13597 28-537)
T1 construct: whole, on cells
Assay: FITC-labeled γ3 carriers on activated endothelial cells, fluorescence microscopy, 1 h 37 C
Procedure: Binding of FITC-labeled γ3 carriers to activated HUVEC cells (bars) vs ICAM-1-negative 293 cells (dotted line) was quantified by fluorescence microscopy after 1 h incubation at 37° C., in the absence or presence of excess γ3, anti-ICAM, or γ3 scramble peptide. The γ3 carriers bound to native ICAM-1 expressed by both activated human and mouse endothelial cells, but not control 293 cells which are known to be voided of ICAM-1 expression (FIG. 5C).

T1 sequence (P13597 28-537): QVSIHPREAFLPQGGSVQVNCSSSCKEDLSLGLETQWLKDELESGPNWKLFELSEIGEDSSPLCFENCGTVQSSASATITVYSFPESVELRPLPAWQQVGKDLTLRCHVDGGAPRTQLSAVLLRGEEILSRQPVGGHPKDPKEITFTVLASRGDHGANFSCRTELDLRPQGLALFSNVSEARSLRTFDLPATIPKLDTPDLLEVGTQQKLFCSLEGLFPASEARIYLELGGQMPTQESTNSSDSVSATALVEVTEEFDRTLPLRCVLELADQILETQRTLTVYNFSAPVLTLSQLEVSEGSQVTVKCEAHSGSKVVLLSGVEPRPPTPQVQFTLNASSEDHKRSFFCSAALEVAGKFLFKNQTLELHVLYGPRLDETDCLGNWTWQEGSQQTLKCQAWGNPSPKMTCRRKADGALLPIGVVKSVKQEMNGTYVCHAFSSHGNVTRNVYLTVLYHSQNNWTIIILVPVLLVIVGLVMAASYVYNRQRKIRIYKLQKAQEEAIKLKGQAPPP

binding result: binds
Binder: NNQKIVNLKEKVAQLEA (also called γ3 peptide; γ3 carriers) [ICAM-1 affinity peptide γ3, a 17-mer polypeptide derived from fibrinogen]

From patent US20130004490A1 (UNITED STATES OF AMERICA AS REPRESENTED BY THE SECRETARY …, published 2013)
